Measured values reported in PMC9021867 (Cell, 2022).

Biological target: Biotinylated human IL-2Rβ ECD (Homo sapiens, UniProt P14784, biotinylated)
Experiment: SPR

Sequence of Biotinylated human IL-2Rβ ECD (P14784 27-240): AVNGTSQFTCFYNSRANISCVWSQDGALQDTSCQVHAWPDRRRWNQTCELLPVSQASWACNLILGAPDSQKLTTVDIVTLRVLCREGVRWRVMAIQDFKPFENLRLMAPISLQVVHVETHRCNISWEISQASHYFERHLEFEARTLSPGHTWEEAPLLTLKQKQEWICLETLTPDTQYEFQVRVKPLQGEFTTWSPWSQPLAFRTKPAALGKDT

| binding result | Binder |
| --- | --- |
| binds | β-VHH6 (VHH) VHH: QVQLQESGGGSVQAGGSLRLSCAASSYTISSVCMGWFRQAPGKEREGVAGIAPDGSTGYGDSVKGRFTISKDNAKNTLYLQMNSLKPEDTAMYYCAAASPGRCFLPRTALEPALYYNWGQGTQVTVSS |
| binds | β-VHH4 (VHH) VHH: QVQLQESGGGSVQAGGSLRLSCAASGSTSCSSVMRWYRQAPGKEREFVSSINSDRRTVYADSVKGRFTISQDNAKSTLYLQMNSLKAEDTATYYCQRELYGDSWCQGNYWGQGTQVTVSS |
| binds | β-VHH3 (VHH) VHH: QVQLQESGGGSVQAGGSLRLSCTASGFTFDDEDMGWYRQAPGNECELVSSIGSLGRRYYADSVKDRFAISQDNAKNTVYLQMNSLKPEDTAVYYCAATKGGSWLDSILASCQGAFGYWGQGTQVTVSS |
| binds | β-VHH1 (VHH) VHH: QVQLQESGGGSVQAGGSLRLSCVTSGYTYSSANMAWFRQAPGKEREGVAIITPSGRATTYADSVKGRFTISRDNAANTLYLQMNSLKPEDTAMYYCAADTPPYSGLWYAERTYNYWGQGTQVTVSS |
